Assay results taken from article PMC12948210 (2025).

How the values were obtained:
Assay in all cases: GST pull-down; 500 mM NaCl; denaturing pull-down (His-DDX21 purified in urea or guanidine)
[1] = target: T1, GST-tagged EIF1AX RBP fragment (Homo sapiens (Human), UniProt P47813)
T1 chain: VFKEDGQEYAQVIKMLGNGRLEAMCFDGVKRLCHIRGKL

[2] = target: T2, GST-tagged EIF1AX IDR2 fragment (Homo sapiens (Human), UniProt P47813)
T2 chain: DIGDDDEDIDDI

[3] = target: T3, GST-tagged EIF1AX IDR1 fragment (Homo sapiens (Human), UniProt P47813)
T3 chain: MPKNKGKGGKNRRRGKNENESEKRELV

B1: His-DDX21 (protein)
chain: MPGKLRSDAGLESDTAMKKGETLRKQTEEKEKKEKPKSDKTEEIAEEEETVFPKAKQVKKKAEPSEVDMNSPKSKKAKKKEEPSQNDISPKTKSLRKKKEPIEKKVVSSKTKKVTKNEEPSEEEIDAPKPKKMKKEKEMNGETREKSPKLKNGFPHPEPDCNPSEAASEESNSEIEQEIPVEQKEGAFSNFPISEETIKLLKGRGVTFLFPIQAKTFHHVYSGKDLIAQARTGTGKTFSFAIPLIEKLHGELQDRKRGRAPQVLVLAPTRELANQVSKDFSDITKKLSVACFYGGTPYGGQFERMRNGIDILVGTPGRIKDHIQNGKLDLTKLKHVVLDEVDQMLDMGFADQVEEILSVAYKKDSEDNPQTLLFSATCPHWVFNVAKKYMKSTYEQVDLIGKKTQKTAITVEHLAIKCHWTQRAAVIGDVIRVYSGHQGRTIIFCETKKEAQELSQNSAIKQDAQSLHGDIPQKQREITLKGFRNGSFGVLVATNVAARGLDIPEVDLVIQSSPPKDVESYIHRSGRTGRAGRTGVCICFYQHKEEYQLVQVEQKAGIKFKRIGVPSATEIIKASSKDAIRLLDSVPPTAISHFKQSAEKLIEEKGAVEALAAALAHISGATSVDQRSLINSNVGFVTMILQCSIEMPNISYAWKELKEQLGEEIDSKVKGMVFLKGKLGVCFDVPTASVTEIQEKWHDSRRWQLSVATEQPELEGPREGYGGFRGQREGSRGFRGQRDGNRRFRGQREGSRGPRGQRSGGGNKSNRSQNKGQKRSFSKAFGQ
B1: binds [1]; no binding [2]; no binding [3].
